{"source": "patent US20140105855A1", "about": "(published 2014)", "binders": {"B1": {"name": "IL-17RB extracellular domain (receptor, UniProt Q9NRM6 18-292, looked up)", "chain": "REPTVQCGSETGPSPEWMLQHDLIPGDLRDLRVEPVTTSVATGDYSILMNVSWVLRADASIRLLKATKICVTGKSNFQSYSCVRCNYTEAFQTQTRPSGGKWTFSYIGFPVELNTVYFIGAHNIPNANMNEDGPSMSVNFTSPGCLDHIMKYKKKCVKAGSLWDPNITACKKNEETVEVNFTTTPLGNRYMALIQHSTIIGFSQVFEPHQKKQTRASVVIPVTGDSEGATVQLTPYFPTCGSDCIRHKGTVVLCPQTGVPFPLDNNKSKPGGWLP", "notes": "extracellular domain; biotinylated when immobilised on the SPR chip"}, "B2": {"name": "IL-17RC extracellular domain (receptor, UniProt Q8NAC3 21-538, looked up)", "chain": "LERLVGPQDATHCSPVSLEPWGDEERLRVQFLAQQSLSLAPVTAATARTALSGLSGADGRREERGRGKSWVCLSLGGSGNTEPQKKGLSCRLWDSDILCLPGDIVPAPGPVLAPTHLQTELVLRCQKETDCDLCLRVAVHLAVHGHWEEPEDEEKFGGAADSGVEEPRNASLQAQVVLSFQAYPTARCVLLEVQVPAALVQFGQSVGSVVYDCFEAALGSEVRIWSYTQPRYEKELNHTQQLPDCRGLEVWNSIPSCWALPWLNVSADGDNVHLVLNVSEEQHFGLSLYWNQVQGPPKPRWHKNLTGPQIITLNHTDLVPCLCIQVWPLEPDSVRTNICPFREDPRAHQNLWQAARLQLLTLQSWLLDAPCSLPAEAALCWRAPGGDPCQPLVPPLSWENVTVDKVLEFPLLKGHPNLCVQVNSSEKLQLQECLWADSLGPLKDDVLLLETRGPQDNRSLCALEPSGCTSLPSKASTRAARLGEYLLQDLQSGQCLQLWDDDLGALWACPMDKYIHKR", "notes": "extracellular domain; biotinylated when immobilised"}}, "key": {"[1]": {"molecular_target": "B1", "test": "SPR, IL-25 captured on immobilised IL-17RB", "protocol": "(§1) To examiner whether IL-17RA may only specifically bind IL-25 once IL-25 is captured by IL-17RB, IL-17RB was immobilized on an SPR chip, IL-25 was passed over this chip and the affinity of IL-17RA for the IL-17RB-IL-25 complex was measured. […] At concentrations up to 50 μM, no interaction could be observed between IL-17RA and IL-25, or between the IL-17RB-IL-25 complex and a second IL-17RB molecule.\n(§2) Binding affinities were calculated via surface plasmon resonance (SPR) on a Biacore® T100 (GE Healthcare). C-terminally biotinylated IL-17 receptors were coupled to immobilized streptavidin on either an SA or CM4-sensor chip (GE Healthcare). An irrelevant, biotinylated protein was captured at equivalent immobilization densities to control flow cells. To measure the second receptor binding interaction, the cytokine was first captured to the immobilized receptor, followed by the second receptor injection. Low coupling densities (200-400 RU) and excess cytokine concentrations were used to optimize the number of cytokine homodimers bound to a single receptor. The surface was regenerated using 3 M MgCl2 between each cycle. For kinetic experiments, a flow rate of 50 μl/min was used. Data was analyzed using Biacore® T100 evaluation software Version 2.0 (GE Healthcare). Affinities are reported as the mean of at least two independent experiments±the standard error of the mean (s.e.m.)."}, "[2]": {"molecular_target": "T1, preformed IL-17RB-IL-25 complex (IL-25 captured by immobilised IL-17RB) (UniProt Q9NRM6 18-292; Q9H293 33-177, biotin on the C-terminal BirA ligase tag)", "T1 construct": "extracellular domain;mature; One receptor with one cytokine dimer, assembled stepwise on the SPR chip; not shown: C-terminal BirA ligase tag", "T1 sequence 1": "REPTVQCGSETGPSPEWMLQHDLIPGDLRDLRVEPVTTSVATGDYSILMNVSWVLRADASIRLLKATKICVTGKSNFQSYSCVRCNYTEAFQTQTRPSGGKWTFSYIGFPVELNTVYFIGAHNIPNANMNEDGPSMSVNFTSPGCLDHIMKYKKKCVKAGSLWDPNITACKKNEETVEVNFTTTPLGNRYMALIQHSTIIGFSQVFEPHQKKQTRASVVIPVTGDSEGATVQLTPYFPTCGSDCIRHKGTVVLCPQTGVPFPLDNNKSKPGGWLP", "T1 sequence 2": "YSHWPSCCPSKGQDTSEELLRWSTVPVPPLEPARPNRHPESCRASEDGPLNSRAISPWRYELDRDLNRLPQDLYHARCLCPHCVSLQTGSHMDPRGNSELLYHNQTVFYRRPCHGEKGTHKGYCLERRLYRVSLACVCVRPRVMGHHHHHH", "test": "SPR; second receptor injected over IL-25 captured on immobilised IL-17RB", "protocol": "as §1, §2"}, "[3]": {"molecular_target": "B2", "test": "SPR, biotinylated receptor on streptavidin chip, cytokine injected", "protocol": "as §2"}, "[4]": {"molecular_target": "T2, preformed IL-17RC-IL-17A complex (IL-17A captured by immobilised IL-17RC) (UniProt Q8NAC3 21-538; Q16552 24-155, biotin on the C-terminal BirA ligase tag)", "T2 construct": "extracellular domain;mature; One receptor with one cytokine dimer, assembled stepwise on the SPR chip; also called existing IL-17RC-IL-17A complex; not shown: C-terminal BirA ligase tag", "T2 sequence (Q16552 other isoform, or with tags, fused parts or gaps)": "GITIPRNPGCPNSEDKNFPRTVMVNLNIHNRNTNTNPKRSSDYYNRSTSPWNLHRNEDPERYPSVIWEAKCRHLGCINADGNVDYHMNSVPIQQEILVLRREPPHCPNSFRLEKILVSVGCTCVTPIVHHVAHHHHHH", "test": "SPR, second receptor injected over IL-17A captured on immobilised IL-17RC", "excerpt": "(§3) This strategy involved immobilizing one receptor on a SPR chip at a low coupling density in order to minimize possible homo-dimerization (e.g. cross-linking) of the receptors on the chip. The dimeric IL-17 cytokine was then captured by this receptor so that each receptor would be bound to one dimeric IL-17 ligand, leaving an exposed and accessible second receptor-binding site. The second receptor was subsequently passed over the preformed receptor-cytokine complexes to measure the affinity of the second receptor-binding event. In this fashion, the complex was assembled in a stepwise manner and each of the binding affinities was measured (FIG. 3).\nas §2, with “The surface was regenerated using 3 M MgCl2 between each cycle. For kinetic experiments, a flow rate of 50 μl/min was used.” left out, “Affinities are reported as the mean of at least two independent experiments±the standard error of the mean (s.e.m.).” left out"}, "[5]": {"molecular_target": "T3, preformed IL-17RA-IL-17A complex (IL-17A captured by immobilised IL-17RA) (human, UniProt Q16552 24-155)", "T3 construct": "mature; One receptor with one cytokine dimer, assembled stepwise on the SPR chip; not shown: C-terminal BirA ligase tag", "T3 sequence (Q16552 other isoform, or with tags, fused parts or gaps)": "as above", "test": "SPR, second receptor injected over IL-17A captured on immobilised IL-17RA", "excerpt": "as §3\nas §2, with “The surface was regenerated using 3 M MgCl2 between each cycle. For kinetic experiments, a flow rate of 50 μl/min was used.” left out, “Affinities are reported as the mean of at least two independent experiments±the standard error of the mean (s.e.m.).” left out"}}, "data": [{"binder": "IL-25 (ligand, mature; The form 'mature' is inferred from secretion; also called IL-17E) YSHWPSCCPSKGQDTSEELLRWSTVPVPPLEPARPNRHPESCRASEDGPLNSRAISPWRYELDRDLNRLPQDLYHARCLCPHCVSLQTGSHMDPRGNSELLYHNQTVFYRRPCHGEKGTHKGYCLERRLYRVSLACVCVRPRVMGHHHHHH", "values": [{"measurement": "binding result", "setting": "[1]", "result": "binds"}]}, {"binder": "B1", "values": [{"measurement": "binding result", "setting": "[2]", "result": "no binding (tested: up to 50 µM)"}]}, {"binder": "IL-17F (ligand, human, mature; For the crystal the His tag was removed with carboxypeptidase A and the complex was lysine-methylated; For SPR the cytokine carried the C-terminal hexa-His tag; also called IL-17F homodimer) RKIPKVGHTFFQKPESCPPVPGGSMKLDIGIINENQRVSMSRNIESRSTSPWNYTVTWDPNRYPSEVVQAQCRNLGCINAQGKEDISMNSVPIQQETLVVRRKHQGCSVSFQLEKVLVTVGCTCVTPVIHHVQHHHHHH", "values": [{"measurement": "Kd", "setting": "[3]", "result": 4.4, "unit": "nM"}]}, {"binder": "B2", "values": [{"measurement": "Kd", "setting": "[4]", "result": 8, "unit": "µM"}, {"measurement": "Kd", "setting": "[5]", "result": 174, "unit": "nM"}]}]}
